± gives the uncertainty stated by the source.
B1: N-4-T; numbered along this chain (parent)
chain: EASNCFAIRHFENKFAVETLICFNLFLNSQEKHY

Variants of: B1
Test: amyloid nucleation score relative to WT ADan (yeast Sup35 reporter selection) (log enrichment difference); higher = more amyloid nucleation
Procedure: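 Deep mutational scan of the ADan peptide fused to the Sup35 nucleation domain (SupN) in S. cerevisiae [psi-pin-], covering all single amino-acid substitutions and stop truncations (truncations = sequence up to the stop). After 24 h Cu2+ induction, cells were selected on -ADE-URA plates for 7 d at 30 °C. The nucleation score is log enrichment (output/input, deep sequencing) minus that of WT ADan, as the error-weighted mean of 3 biological replicates (DiMSum).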

Row | Variant | amyloid nucleation score
1 | EASTCFAIRHFENKFAVETLICFNLFLNSQEKHY [N4T] | -2.19 ± 0.26
2 | EASVCFAIRHFENKFAVETLICFNLFLNSQEKHY [N4V] | -4.24 ± 0.49
3 | EASWCFAIRHFENKFAVETLICFNLFLNSQEKHY [N4W] | -3.34 ± 0.39
4 | EASYCFAIRHFENKFAVETLICFNLFLNSQEKHY [N4Y] | -2.45 ± 0.28
5 | EASNAFAIRHFENKFAVETLICFNLFLNSQEKHY [C5A] | 0.274 ± 0.14
6 | EASNDFAIRHFENKFAVETLICFNLFLNSQEKHY [C5D] | 0.699 ± 0.18
7 | EASNEFAIRHFENKFAVETLICFNLFLNSQEKHY [C5E] | 0.484 ± 0.21
8 | EASNFFAIRHFENKFAVETLICFNLFLNSQEKHY [C5F] | 0.0304 ± 0.15
9 | EASNGFAIRHFENKFAVETLICFNLFLNSQEKHY [C5G] | 0.214 ± 0.11
10 | EASNHFAIRHFENKFAVETLICFNLFLNSQEKHY [C5H] | 0.0549 ± 0.26
11 | EASNIFAIRHFENKFAVETLICFNLFLNSQEKHY [C5I] | -0.166 ± 0.15
12 | EASNKFAIRHFENKFAVETLICFNLFLNSQEKHY [C5K] | -0.223 ± 0.21
13 | EASNLFAIRHFENKFAVETLICFNLFLNSQEKHY [C5L] | -0.0462 ± 0.12
14 | EASNMFAIRHFENKFAVETLICFNLFLNSQEKHY [C5M] | 0.796 ± 0.19
15 | EASNNFAIRHFENKFAVETLICFNLFLNSQEKHY [C5N] | 0.0664 ± 0.2
16 | EASNPFAIRHFENKFAVETLICFNLFLNSQEKHY [C5P] | 0.685 ± 0.19
17 | EASNQFAIRHFENKFAVETLICFNLFLNSQEKHY [C5Q] | 0.396 ± 0.27
18 | EASNRFAIRHFENKFAVETLICFNLFLNSQEKHY [C5R] | 0.0293 ± 0.12
19 | EASNSFAIRHFENKFAVETLICFNLFLNSQEKHY [C5S] | 0.0127 ± 0.12
20 | EASNTFAIRHFENKFAVETLICFNLFLNSQEKHY [C5T] | -0.0743 ± 0.15
21 | EASNVFAIRHFENKFAVETLICFNLFLNSQEKHY [C5V] | -0.199 ± 0.12
22 | EASNWFAIRHFENKFAVETLICFNLFLNSQEKHY [C5W] | -1.36 ± 0.21
23 | EASNYFAIRHFENKFAVETLICFNLFLNSQEKHY [C5Y] | -0.00901 ± 0.15
24 | EASNCAAIRHFENKFAVETLICFNLFLNSQEKHY [F6A] | 0.0803 ± 0.13

Row | Variant | amyloid nucleation score
25 | EASNCCAIRHFENKFAVETLICFNLFLNSQEKHY [F6C] | 0.408 ± 0.14
26 | EASNCDAIRHFENKFAVETLICFNLFLNSQEKHY [F6D] | 0.634 ± 0.16
27 | EASNCEAIRHFENKFAVETLICFNLFLNSQEKHY [F6E] | 0.683 ± 0.15
28 | EASNCGAIRHFENKFAVETLICFNLFLNSQEKHY [F6G] | 0.176 ± 0.11
29 | EASNCHAIRHFENKFAVETLICFNLFLNSQEKHY [F6H] | 0.563 ± 0.19
30 | EASNCIAIRHFENKFAVETLICFNLFLNSQEKHY [F6I] | -0.609 ± 0.19
31 | EASNCKAIRHFENKFAVETLICFNLFLNSQEKHY [F6K] | 0.8 ± 0.17
32 | EASNCLAIRHFENKFAVETLICFNLFLNSQEKHY [F6L] | -0.5 ± 0.11
33 | EASNCMAIRHFENKFAVETLICFNLFLNSQEKHY [F6M] | -0.0809 ± 0.15
34 | EASNCNAIRHFENKFAVETLICFNLFLNSQEKHY [F6N] | 0.646 ± 0.28
35 | EASNCPAIRHFENKFAVETLICFNLFLNSQEKHY [F6P] | 0.53 ± 0.16
36 | EASNCQAIRHFENKFAVETLICFNLFLNSQEKHY [F6Q] | 0.362 ± 0.17
37 | EASNCRAIRHFENKFAVETLICFNLFLNSQEKHY [F6R] | 0.678 ± 0.1
38 | EASNCSAIRHFENKFAVETLICFNLFLNSQEKHY [F6S] | 0.477 ± 0.11
39 | EASNCVAIRHFENKFAVETLICFNLFLNSQEKHY [F6V] | -0.127 ± 0.1
40 | EASNCWAIRHFENKFAVETLICFNLFLNSQEKHY [F6W] | 0.168 ± 0.16
41 | EASNCYAIRHFENKFAVETLICFNLFLNSQEKHY [F6Y] | 0.351 ± 0.14
42 | EASNCFCIRHFENKFAVETLICFNLFLNSQEKHY [A7C] | 0.601 ± 0.12
43 | EASNCFDIRHFENKFAVETLICFNLFLNSQEKHY [A7D] | -0.2 ± 0.14
44 | EASNCFEIRHFENKFAVETLICFNLFLNSQEKHY [A7E] | 0.0742 ± 0.14
45 | EASNCFFIRHFENKFAVETLICFNLFLNSQEKHY [A7F] | 0.173 ± 0.13
46 | EASNCFGIRHFENKFAVETLICFNLFLNSQEKHY [A7G] | 0.45 ± 0.082
47 | EASNCFHIRHFENKFAVETLICFNLFLNSQEKHY [A7H] | 0.394 ± 0.15
48 | EASNCFIIRHFENKFAVETLICFNLFLNSQEKHY [A7I] | -0.415 ± 0.14

Row | Variant | amyloid nucleation score
49 | EASNCFKIRHFENKFAVETLICFNLFLNSQEKHY [A7K] | 0.0182 ± 0.15
50 | EASNCFLIRHFENKFAVETLICFNLFLNSQEKHY [A7L] | -1.17 ± 0.099
51 | EASNCFMIRHFENKFAVETLICFNLFLNSQEKHY [A7M] | -0.0811 ± 0.16
52 | EASNCFNIRHFENKFAVETLICFNLFLNSQEKHY [A7N] | 0.744 ± 0.13
53 | EASNCFPIRHFENKFAVETLICFNLFLNSQEKHY [A7P] | 0.577 ± 0.12
54 | EASNCFQIRHFENKFAVETLICFNLFLNSQEKHY [A7Q] | 0.436 ± 0.18
55 | EASNCFRIRHFENKFAVETLICFNLFLNSQEKHY [A7R] | 0.12 ± 0.086
56 | EASNCFSIRHFENKFAVETLICFNLFLNSQEKHY [A7S] | 0.0708 ± 0.089
57 | EASNCFTIRHFENKFAVETLICFNLFLNSQEKHY [A7T] | -0.0425 ± 0.13
58 | EASNCFVIRHFENKFAVETLICFNLFLNSQEKHY [A7V] | 0.125 ± 0.1
59 | EASNCFWIRHFENKFAVETLICFNLFLNSQEKHY [A7W] | -0.43 ± 0.15
60 | EASNCFYIRHFENKFAVETLICFNLFLNSQEKHY [A7Y] | 0.529 ± 0.13
61 | EASNCFAARHFENKFAVETLICFNLFLNSQEKHY [I8A] | 0.49 ± 0.13
62 | EASNCFACRHFENKFAVETLICFNLFLNSQEKHY [I8C] | 0.524 ± 0.14
63 | EASNCFADRHFENKFAVETLICFNLFLNSQEKHY [I8D] | 0.678 ± 0.15
64 | EASNCFAERHFENKFAVETLICFNLFLNSQEKHY [I8E] | 0.604 ± 0.17
65 | EASNCFAFRHFENKFAVETLICFNLFLNSQEKHY [I8F] | 0.15 ± 0.14
66 | EASNCFAGRHFENKFAVETLICFNLFLNSQEKHY [I8G] | 0.834 ± 0.11
67 | EASNCFAHRHFENKFAVETLICFNLFLNSQEKHY [I8H] | 0.873 ± 0.21
68 | EASNCFAKRHFENKFAVETLICFNLFLNSQEKHY [I8K] | 0.701 ± 0.17
69 | EASNCFALRHFENKFAVETLICFNLFLNSQEKHY [I8L] | 0.288 ± 0.099
70 | EASNCFAMRHFENKFAVETLICFNLFLNSQEKHY [I8M] | 0.354 ± 0.15
71 | EASNCFANRHFENKFAVETLICFNLFLNSQEKHY [I8N] | 0.497 ± 0.15

— the supplement of paper PMC12067230
